Values joined by “and” are separate entries in the source; they are usually repeats but may differ in a detail not shown here. Equal entries are not always repeated.
Tests used:
CXCL4 [1] = assay: native MS; pure chemokine, 20 μM in 250 mM ammonium acetate buffer, nanoelectrospray, Waters Synapt G2-S, ion mobility separation bypassed
CXCL4 [2] = assay: native MS; chemokine (20 μM solution in 250 mM ammonium acetate) mixed with fondaparinux at 1:1 molar ratio, nanoelectrospray, spectra deconvoluted in UniDec

## CXCL4 (natural protein)
CXCL4 [1]
  stoichiometry N: 4
CXCL4 [2]
  stoichiometry N: 4 and 2
